# Reference: US10006011
# Experiments:
# [1] = tested on: TALEN left L20 of FIG. 4B (Comparative Example 1) (synthetic construct); assay: cell_activity; conditions: SSA assay HEK293T, reference pair with R17
# [2] = tested on: TALEN right R17 of FIG. 4B (Comparative Example 1) (synthetic construct); assay: cell_activity; conditions: SSA assay HEK293T, reference pair with L20
sequence,measurement,setting,value
TCCATTCCTATGACTGTAGATTTTTATCAGACTGAAGAGCTATTGTGTGAGTATA (double strand) [FIG. 4B TALEN target],activity,[1],1 relative
same,activity,[2],1 relative
